Laboratory results published in publication PMC9242541, “Importance of Rare DPYD Genetic Polymorphisms for 5-Fluorouracil Therapy in the Japanese Population” (Frontiers in Pharmacology, 2022).

B1: DPD variant M321I (enzyme, human, UniProt Q12882 4-1025, looked up)
chain: VLSKDSADIESILALNPRTQTHATLCSTSAKKLDKKHWKRNPDKNCFNCEKLENNFDDIKHTTLGERGALREAMRCLKCADAPCQKSCPTNLDIKSFITSIANKNYYGAAKMIFSDNPLGLTCGMVCPTSDLCVGGCNLYATEEGPINIGGLQQFATEVFKAMSIPQIRNPSLPPPEKMSEAYSAKIALFGAGPASISCASFLARLGYSDITIFEKQEYVGGLSTSEIPQFRLPYDVVNFEIELMKDLGVKIICGKSLSVNEMTLSTLKEKGYKAAFIGIGLPEPNKDAIFQGLTQDQGFYTSKDFLPLVAKGSKAGICACHSPLPSIRGVVIVLGAGDTAFDCATSALRCGARRVFIVFRKGFVNIRAVPEEMELAKEEKCEFLPFLSPRKVIVKGGRIVAMQFVRTEQDETGKWNEDEDQMVHLKADVVISAFGSVLSDPKVKEALSPIKFNRWGLPEVDPETMQTSEAWVFAGGDVVGLANTTVESVNDGKQASWYIHKYVQSQYGASVSAKPELPLFYTPIDLVDISVEMAGLKFINPFGLASATPATSTSMIRRAFEAGWGFALTKTFSLDKDIVTNVSPRIIRGTTSGPMYGPGQSSFLNIELISEKTAAYWCQSVTELKADFPDNIVIASIMCSYNKNDWTELAKKSEDSGADALELNLSCPHGMGERGMGLACGQDPELVRNICRWVRQAVQIPFFAKLTPNVTDIVSIARAAKEGGANGVTATNTVSGLMGLKSDGTPWPAVGIAKRTTYGGVSGTAIRPIALRAVTSIARALPGFPILATGGIDSAESGLQFLHSGASVLQVCSAIQNQDFTVIEDYCTGLKALLYLKSIEELQDWDGQSPATVSHQKGKPVPRIAELMDKKLPSFGPYLEQRKKIIAENKIRLKEQNVAFSPLKRNCFIPKRPIPTIKDVIGKALQYLGTFGELSNVEQVVAMIDEEMCINCGKCYMTCNDSGYQAIQFDPETHLPTITDTCTGCTLCLSVCPIVDCIKMVSRTTPYEPKRGVPLSVNPVC
notes: dihydropyrimidine dehydrogenase (DPD), human, DPYD cDNA with a variant found in Japanese individuals; made by site-directed mutagenesis of the wild-type construct; also called 963G > A; source: 293FT cells, transfected (pcDNA3.4), soluble fraction
B2: DPD variant V335M (enzyme, human, UniProt Q12882 4-1025, looked up)
chain: VLSKDSADIESILALNPRTQTHATLCSTSAKKLDKKHWKRNPDKNCFNCEKLENNFDDIKHTTLGERGALREAMRCLKCADAPCQKSCPTNLDIKSFITSIANKNYYGAAKMIFSDNPLGLTCGMVCPTSDLCVGGCNLYATEEGPINIGGLQQFATEVFKAMSIPQIRNPSLPPPEKMSEAYSAKIALFGAGPASISCASFLARLGYSDITIFEKQEYVGGLSTSEIPQFRLPYDVVNFEIELMKDLGVKIICGKSLSVNEMTLSTLKEKGYKAAFIGIGLPEPNKDAIFQGLTQDQGFYTSKDFLPLVAKGSKAGMCACHSPLPSIRGVMIVLGAGDTAFDCATSALRCGARRVFIVFRKGFVNIRAVPEEMELAKEEKCEFLPFLSPRKVIVKGGRIVAMQFVRTEQDETGKWNEDEDQMVHLKADVVISAFGSVLSDPKVKEALSPIKFNRWGLPEVDPETMQTSEAWVFAGGDVVGLANTTVESVNDGKQASWYIHKYVQSQYGASVSAKPELPLFYTPIDLVDISVEMAGLKFINPFGLASATPATSTSMIRRAFEAGWGFALTKTFSLDKDIVTNVSPRIIRGTTSGPMYGPGQSSFLNIELISEKTAAYWCQSVTELKADFPDNIVIASIMCSYNKNDWTELAKKSEDSGADALELNLSCPHGMGERGMGLACGQDPELVRNICRWVRQAVQIPFFAKLTPNVTDIVSIARAAKEGGANGVTATNTVSGLMGLKSDGTPWPAVGIAKRTTYGGVSGTAIRPIALRAVTSIARALPGFPILATGGIDSAESGLQFLHSGASVLQVCSAIQNQDFTVIEDYCTGLKALLYLKSIEELQDWDGQSPATVSHQKGKPVPRIAELMDKKLPSFGPYLEQRKKIIAENKIRLKEQNVAFSPLKRNCFIPKRPIPTIKDVIGKALQYLGTFGELSNVEQVVAMIDEEMCINCGKCYMTCNDSGYQAIQFDPETHLPTITDTCTGCTLCLSVCPIVDCIKMVSRTTPYEPKRGVPLSVNPVC
notes: dihydropyrimidine dehydrogenase (DPD), human, DPYD cDNA with a variant found in Japanese individuals; made by site-directed mutagenesis of the wild-type construct; also called 1003G > A; source: 293FT cells, transfected (pcDNA3.4), soluble fraction
B3: DPD variant C354Y (enzyme, human, UniProt Q12882 4-1025, looked up)
chain: VLSKDSADIESILALNPRTQTHATLCSTSAKKLDKKHWKRNPDKNCFNCEKLENNFDDIKHTTLGERGALREAMRCLKCADAPCQKSCPTNLDIKSFITSIANKNYYGAAKMIFSDNPLGLTCGMVCPTSDLCVGGCNLYATEEGPINIGGLQQFATEVFKAMSIPQIRNPSLPPPEKMSEAYSAKIALFGAGPASISCASFLARLGYSDITIFEKQEYVGGLSTSEIPQFRLPYDVVNFEIELMKDLGVKIICGKSLSVNEMTLSTLKEKGYKAAFIGIGLPEPNKDAIFQGLTQDQGFYTSKDFLPLVAKGSKAGMCACHSPLPSIRGVVIVLGAGDTAFDCATSALRYGARRVFIVFRKGFVNIRAVPEEMELAKEEKCEFLPFLSPRKVIVKGGRIVAMQFVRTEQDETGKWNEDEDQMVHLKADVVISAFGSVLSDPKVKEALSPIKFNRWGLPEVDPETMQTSEAWVFAGGDVVGLANTTVESVNDGKQASWYIHKYVQSQYGASVSAKPELPLFYTPIDLVDISVEMAGLKFINPFGLASATPATSTSMIRRAFEAGWGFALTKTFSLDKDIVTNVSPRIIRGTTSGPMYGPGQSSFLNIELISEKTAAYWCQSVTELKADFPDNIVIASIMCSYNKNDWTELAKKSEDSGADALELNLSCPHGMGERGMGLACGQDPELVRNICRWVRQAVQIPFFAKLTPNVTDIVSIARAAKEGGANGVTATNTVSGLMGLKSDGTPWPAVGIAKRTTYGGVSGTAIRPIALRAVTSIARALPGFPILATGGIDSAESGLQFLHSGASVLQVCSAIQNQDFTVIEDYCTGLKALLYLKSIEELQDWDGQSPATVSHQKGKPVPRIAELMDKKLPSFGPYLEQRKKIIAENKIRLKEQNVAFSPLKRNCFIPKRPIPTIKDVIGKALQYLGTFGELSNVEQVVAMIDEEMCINCGKCYMTCNDSGYQAIQFDPETHLPTITDTCTGCTLCLSVCPIVDCIKMVSRTTPYEPKRGVPLSVNPVC
notes: dihydropyrimidine dehydrogenase (DPD), human, DPYD cDNA with a variant found in Japanese individuals; made by site-directed mutagenesis of the wild-type construct; also called 1061G > A; source: 293FT cells, transfected (pcDNA3.4), soluble fraction
B4: DPD variant R353C (enzyme, human, UniProt Q12882 4-1025, looked up)
chain: VLSKDSADIESILALNPRTQTHATLCSTSAKKLDKKHWKRNPDKNCFNCEKLENNFDDIKHTTLGERGALREAMRCLKCADAPCQKSCPTNLDIKSFITSIANKNYYGAAKMIFSDNPLGLTCGMVCPTSDLCVGGCNLYATEEGPINIGGLQQFATEVFKAMSIPQIRNPSLPPPEKMSEAYSAKIALFGAGPASISCASFLARLGYSDITIFEKQEYVGGLSTSEIPQFRLPYDVVNFEIELMKDLGVKIICGKSLSVNEMTLSTLKEKGYKAAFIGIGLPEPNKDAIFQGLTQDQGFYTSKDFLPLVAKGSKAGMCACHSPLPSIRGVVIVLGAGDTAFDCATSALCCGARRVFIVFRKGFVNIRAVPEEMELAKEEKCEFLPFLSPRKVIVKGGRIVAMQFVRTEQDETGKWNEDEDQMVHLKADVVISAFGSVLSDPKVKEALSPIKFNRWGLPEVDPETMQTSEAWVFAGGDVVGLANTTVESVNDGKQASWYIHKYVQSQYGASVSAKPELPLFYTPIDLVDISVEMAGLKFINPFGLASATPATSTSMIRRAFEAGWGFALTKTFSLDKDIVTNVSPRIIRGTTSGPMYGPGQSSFLNIELISEKTAAYWCQSVTELKADFPDNIVIASIMCSYNKNDWTELAKKSEDSGADALELNLSCPHGMGERGMGLACGQDPELVRNICRWVRQAVQIPFFAKLTPNVTDIVSIARAAKEGGANGVTATNTVSGLMGLKSDGTPWPAVGIAKRTTYGGVSGTAIRPIALRAVTSIARALPGFPILATGGIDSAESGLQFLHSGASVLQVCSAIQNQDFTVIEDYCTGLKALLYLKSIEELQDWDGQSPATVSHQKGKPVPRIAELMDKKLPSFGPYLEQRKKIIAENKIRLKEQNVAFSPLKRNCFIPKRPIPTIKDVIGKALQYLGTFGELSNVEQVVAMIDEEMCINCGKCYMTCNDSGYQAIQFDPETHLPTITDTCTGCTLCLSVCPIVDCIKMVSRTTPYEPKRGVPLSVNPVC
notes: dihydropyrimidine dehydrogenase (DPD), human, DPYD cDNA with a variant found in Japanese individuals; made by site-directed mutagenesis of the wild-type construct; expression after SDS-PAGE was below the lower limit of quantification; also called 1057C > T; source: 293FT cells, transfected (pcDNA3.4), soluble fraction

Target: the molecule itself
Assay: native gel or EMSA; blue native PAGE (Tris-glycine buffer, 5%-20% polyacrylamide gels), 9 μg of the soluble fraction of transfected 293FT cells per lane, immunoblot with polyclonal anti-human DPD antibody; monomer to dimer

Protein | stoichiometry N
B1 | 2
B2 | 2
B3 | 2
B4 | 2
